# Assay results: patent US20240261333A1, “NOVEL TARGETS FOR ENHANCING ANTI-TUMOR IMMUNITY” (THE BROAD INSTITUTE, INC., priority 2021, published 2024)
# Experiments:
# MOV10 (human) = target: T1, MOV10 (human) (UniProt Q9HCE1); experiment: co-IP, IgG control, lysate of cells with C-FLAG B3GNT2; mass spectrometry
# T1 sequence (looked up): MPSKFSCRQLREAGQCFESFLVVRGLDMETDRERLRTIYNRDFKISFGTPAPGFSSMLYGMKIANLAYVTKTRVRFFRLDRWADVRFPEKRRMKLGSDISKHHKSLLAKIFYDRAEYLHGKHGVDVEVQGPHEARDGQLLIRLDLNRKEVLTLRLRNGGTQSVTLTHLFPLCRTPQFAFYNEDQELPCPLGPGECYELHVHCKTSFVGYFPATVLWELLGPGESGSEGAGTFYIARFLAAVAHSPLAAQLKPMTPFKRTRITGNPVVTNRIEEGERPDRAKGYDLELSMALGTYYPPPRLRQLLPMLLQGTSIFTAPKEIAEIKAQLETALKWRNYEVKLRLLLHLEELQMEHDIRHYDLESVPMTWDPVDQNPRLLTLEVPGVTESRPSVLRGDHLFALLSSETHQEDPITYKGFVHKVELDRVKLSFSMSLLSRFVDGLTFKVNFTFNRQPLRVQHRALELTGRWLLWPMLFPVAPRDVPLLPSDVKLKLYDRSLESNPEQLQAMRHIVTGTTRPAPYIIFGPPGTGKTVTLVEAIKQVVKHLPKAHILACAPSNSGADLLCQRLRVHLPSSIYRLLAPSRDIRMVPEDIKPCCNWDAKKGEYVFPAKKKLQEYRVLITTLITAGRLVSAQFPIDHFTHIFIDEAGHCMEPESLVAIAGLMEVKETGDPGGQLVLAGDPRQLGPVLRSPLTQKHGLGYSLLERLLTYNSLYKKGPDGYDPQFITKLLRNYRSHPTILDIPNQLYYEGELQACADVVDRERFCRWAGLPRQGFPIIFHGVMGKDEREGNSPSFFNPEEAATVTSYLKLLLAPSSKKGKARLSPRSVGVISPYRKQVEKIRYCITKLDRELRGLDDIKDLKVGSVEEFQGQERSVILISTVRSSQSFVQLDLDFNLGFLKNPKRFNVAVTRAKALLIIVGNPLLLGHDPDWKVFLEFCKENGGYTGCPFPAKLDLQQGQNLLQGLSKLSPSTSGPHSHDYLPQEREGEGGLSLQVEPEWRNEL
# FUBP3 (human) = FUBP3 (human) (UniProt Q96I24); experiment: as above
# RPL13 (human) = RPL13 (human) (UniProt P26373); experiment: as above
# HADHB (human) = HADHB (human) (UniProt P55084); experiment: as above
# FAU (human) = FAU (human) (UniProt P62861); experiment: as above
# C1orf68 (human) = C1orf68 (human) (UniProt Q5T750); experiment: as above
# C1orf68 (human), sequence (Q5T750 whole entry): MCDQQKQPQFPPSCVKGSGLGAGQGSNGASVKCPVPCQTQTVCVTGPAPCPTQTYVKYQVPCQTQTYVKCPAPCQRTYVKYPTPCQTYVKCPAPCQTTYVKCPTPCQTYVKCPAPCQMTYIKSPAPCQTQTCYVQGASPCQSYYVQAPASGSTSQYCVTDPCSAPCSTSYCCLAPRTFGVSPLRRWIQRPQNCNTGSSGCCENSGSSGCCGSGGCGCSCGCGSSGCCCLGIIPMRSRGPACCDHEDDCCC
# SPTAN1 (human) = SPTAN1 (human) (UniProt Q13813); experiment: as above
# RPL10 (human) = RPL10 (human) (UniProt P27635); experiment: as above
# SAMM50 (human) = SAMM50 (human) (UniProt Q9Y512); experiment: as above
# SAMM50 (human), sequence (Q9Y512 whole entry): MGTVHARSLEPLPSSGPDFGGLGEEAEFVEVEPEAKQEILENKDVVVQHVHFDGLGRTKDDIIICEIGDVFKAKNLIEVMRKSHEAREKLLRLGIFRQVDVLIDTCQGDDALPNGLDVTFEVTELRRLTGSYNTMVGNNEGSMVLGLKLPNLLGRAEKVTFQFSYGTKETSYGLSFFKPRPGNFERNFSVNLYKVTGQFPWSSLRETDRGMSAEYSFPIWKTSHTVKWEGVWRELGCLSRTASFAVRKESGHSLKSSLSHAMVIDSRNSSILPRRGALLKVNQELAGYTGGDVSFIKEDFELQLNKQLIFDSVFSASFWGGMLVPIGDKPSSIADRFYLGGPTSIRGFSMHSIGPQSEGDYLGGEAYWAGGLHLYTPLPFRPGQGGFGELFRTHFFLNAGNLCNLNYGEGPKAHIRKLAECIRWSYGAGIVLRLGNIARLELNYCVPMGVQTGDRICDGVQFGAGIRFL
# HNRNPA2B1 (human) = HNRNPA2B1 (human) (UniProt P22626); experiment: as above
# HNRNPA2B1 (human), sequence (P22626 other isoform, or with tags, fused parts or gaps limits assumed): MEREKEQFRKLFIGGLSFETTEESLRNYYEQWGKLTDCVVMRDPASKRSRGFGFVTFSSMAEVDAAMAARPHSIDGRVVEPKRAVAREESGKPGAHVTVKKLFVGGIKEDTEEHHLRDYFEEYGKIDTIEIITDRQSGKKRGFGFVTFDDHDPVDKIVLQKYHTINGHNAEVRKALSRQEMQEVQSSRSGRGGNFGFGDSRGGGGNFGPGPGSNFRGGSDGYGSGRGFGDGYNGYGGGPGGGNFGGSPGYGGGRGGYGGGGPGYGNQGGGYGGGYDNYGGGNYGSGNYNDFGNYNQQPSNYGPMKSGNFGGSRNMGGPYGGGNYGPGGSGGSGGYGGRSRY
# GGCT (human) = GGCT (human) (UniProt O75223); experiment: as above
# ATXN2 (human) = ATXN2 (human) (UniProt Q99700); experiment: as above
# LMNA (human) = LMNA (human) (UniProt P02545); experiment: as above
# SERBP1 (human) = target: T2, SERBP1 (human) (UniProt Q8NC51); experiment: as above
# T2 sequence (looked up): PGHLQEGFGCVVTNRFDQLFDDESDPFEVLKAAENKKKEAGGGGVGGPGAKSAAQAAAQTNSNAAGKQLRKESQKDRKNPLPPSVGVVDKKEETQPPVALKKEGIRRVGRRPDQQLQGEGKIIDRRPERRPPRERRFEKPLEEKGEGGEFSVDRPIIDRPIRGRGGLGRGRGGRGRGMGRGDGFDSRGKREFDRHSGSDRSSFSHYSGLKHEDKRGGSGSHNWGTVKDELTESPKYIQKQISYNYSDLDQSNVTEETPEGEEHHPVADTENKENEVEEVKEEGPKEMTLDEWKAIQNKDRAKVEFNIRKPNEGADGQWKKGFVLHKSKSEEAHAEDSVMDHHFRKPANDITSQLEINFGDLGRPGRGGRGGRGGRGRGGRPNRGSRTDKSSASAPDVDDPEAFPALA
# MYH11 (human) = MYH11 (human) (UniProt P35749); experiment: as above
# MYH11 (human), sequence (P35749 other isoform, or with tags, fused parts or gaps limits assumed): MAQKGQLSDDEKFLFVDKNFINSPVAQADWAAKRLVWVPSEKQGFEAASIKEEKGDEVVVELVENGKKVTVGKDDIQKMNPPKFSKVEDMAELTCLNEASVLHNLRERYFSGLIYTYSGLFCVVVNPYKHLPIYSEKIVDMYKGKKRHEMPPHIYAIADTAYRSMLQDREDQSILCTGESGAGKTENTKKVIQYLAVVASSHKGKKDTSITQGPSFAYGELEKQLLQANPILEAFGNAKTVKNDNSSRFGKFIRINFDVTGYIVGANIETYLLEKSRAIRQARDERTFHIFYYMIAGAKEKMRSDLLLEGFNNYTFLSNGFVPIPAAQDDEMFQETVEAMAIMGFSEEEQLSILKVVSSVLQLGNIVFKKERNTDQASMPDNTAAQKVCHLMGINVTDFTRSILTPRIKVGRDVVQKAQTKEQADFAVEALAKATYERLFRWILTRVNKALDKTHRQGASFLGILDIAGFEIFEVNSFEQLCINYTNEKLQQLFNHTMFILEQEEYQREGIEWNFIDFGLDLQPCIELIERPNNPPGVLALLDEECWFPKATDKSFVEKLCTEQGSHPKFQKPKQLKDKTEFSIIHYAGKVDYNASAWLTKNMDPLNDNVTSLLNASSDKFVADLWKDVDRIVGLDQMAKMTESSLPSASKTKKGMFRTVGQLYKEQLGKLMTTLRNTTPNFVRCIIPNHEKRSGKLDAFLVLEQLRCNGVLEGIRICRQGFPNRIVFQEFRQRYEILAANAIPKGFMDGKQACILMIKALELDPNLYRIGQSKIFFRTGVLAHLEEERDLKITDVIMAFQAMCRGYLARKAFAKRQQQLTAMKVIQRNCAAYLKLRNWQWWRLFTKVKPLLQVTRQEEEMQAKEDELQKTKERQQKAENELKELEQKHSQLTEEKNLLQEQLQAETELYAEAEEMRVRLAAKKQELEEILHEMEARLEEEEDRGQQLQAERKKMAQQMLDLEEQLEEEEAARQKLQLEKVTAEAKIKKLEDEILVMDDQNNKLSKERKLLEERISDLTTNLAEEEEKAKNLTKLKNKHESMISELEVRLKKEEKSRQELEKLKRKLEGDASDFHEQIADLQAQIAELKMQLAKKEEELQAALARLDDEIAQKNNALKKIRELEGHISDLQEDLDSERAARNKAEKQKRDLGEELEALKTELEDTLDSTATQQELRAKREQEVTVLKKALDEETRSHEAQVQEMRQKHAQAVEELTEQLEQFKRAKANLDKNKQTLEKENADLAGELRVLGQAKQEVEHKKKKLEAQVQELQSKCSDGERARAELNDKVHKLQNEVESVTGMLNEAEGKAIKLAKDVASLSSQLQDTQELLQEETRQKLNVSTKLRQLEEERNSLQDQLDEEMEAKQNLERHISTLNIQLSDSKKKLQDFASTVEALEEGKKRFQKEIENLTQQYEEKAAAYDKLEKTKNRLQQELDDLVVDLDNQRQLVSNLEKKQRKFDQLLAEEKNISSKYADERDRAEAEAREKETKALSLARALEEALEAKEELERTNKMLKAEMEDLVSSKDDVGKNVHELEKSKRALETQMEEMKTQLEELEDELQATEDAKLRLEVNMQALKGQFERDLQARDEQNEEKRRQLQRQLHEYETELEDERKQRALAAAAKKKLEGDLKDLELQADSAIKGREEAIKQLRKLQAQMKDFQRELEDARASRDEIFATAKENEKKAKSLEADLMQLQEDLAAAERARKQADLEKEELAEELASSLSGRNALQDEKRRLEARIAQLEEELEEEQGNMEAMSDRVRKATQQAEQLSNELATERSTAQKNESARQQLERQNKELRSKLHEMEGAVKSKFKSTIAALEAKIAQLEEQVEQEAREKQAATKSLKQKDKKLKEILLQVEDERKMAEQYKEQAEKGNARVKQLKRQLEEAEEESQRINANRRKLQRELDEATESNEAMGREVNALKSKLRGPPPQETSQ
# CSE1L (human) = CSE1L (human) (UniProt P55060); experiment: as above
# HNRNPK (human) = HNRNPK (human) (UniProt P61978); experiment: as above
# HNRNPK (human), sequence (P61978 other isoform, or with tags, fused parts or gaps limits assumed): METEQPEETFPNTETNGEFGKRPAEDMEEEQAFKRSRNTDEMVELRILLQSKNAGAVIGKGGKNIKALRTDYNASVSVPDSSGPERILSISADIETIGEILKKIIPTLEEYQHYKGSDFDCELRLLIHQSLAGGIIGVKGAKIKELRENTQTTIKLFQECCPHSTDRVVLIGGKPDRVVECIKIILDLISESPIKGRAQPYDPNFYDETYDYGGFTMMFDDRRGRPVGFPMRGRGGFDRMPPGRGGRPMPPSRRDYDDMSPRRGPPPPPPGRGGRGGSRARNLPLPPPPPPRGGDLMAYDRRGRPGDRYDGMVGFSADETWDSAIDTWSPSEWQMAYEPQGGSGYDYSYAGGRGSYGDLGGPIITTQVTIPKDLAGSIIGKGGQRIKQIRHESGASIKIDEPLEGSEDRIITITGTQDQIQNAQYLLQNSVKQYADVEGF
# G3BP1 (human) = G3BP1 (human) (UniProt Q13283); experiment: as above
# DNAJC3 (human) = DNAJC3 (human) (UniProt Q13217); experiment: as above
# DNAJC3 (human), sequence (Q13217 32-504 limits assumed): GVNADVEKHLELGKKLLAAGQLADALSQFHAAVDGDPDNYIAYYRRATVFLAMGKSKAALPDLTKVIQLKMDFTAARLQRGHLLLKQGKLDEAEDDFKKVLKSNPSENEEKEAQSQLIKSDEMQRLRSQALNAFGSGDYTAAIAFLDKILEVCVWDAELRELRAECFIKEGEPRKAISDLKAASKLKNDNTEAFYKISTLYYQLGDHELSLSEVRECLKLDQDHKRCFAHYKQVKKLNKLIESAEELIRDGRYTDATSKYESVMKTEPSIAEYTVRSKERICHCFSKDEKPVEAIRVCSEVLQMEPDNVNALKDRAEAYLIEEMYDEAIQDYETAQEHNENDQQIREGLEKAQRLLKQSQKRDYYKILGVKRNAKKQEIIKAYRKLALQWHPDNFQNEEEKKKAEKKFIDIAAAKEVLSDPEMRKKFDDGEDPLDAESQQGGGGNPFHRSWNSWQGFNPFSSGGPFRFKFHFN
# PSMA3 (human) = PSMA3 (human) (UniProt P25788); experiment: co-IP with IgG control, lysate of N-FLAG B3GNT2 cells, mass spectrometry
# MMS19 (human) = MMS19 (human) (UniProt Q96T76); experiment: as above
# MMS19 (human), sequence (Q96T76 other isoform, or with tags, fused parts or gaps limits assumed): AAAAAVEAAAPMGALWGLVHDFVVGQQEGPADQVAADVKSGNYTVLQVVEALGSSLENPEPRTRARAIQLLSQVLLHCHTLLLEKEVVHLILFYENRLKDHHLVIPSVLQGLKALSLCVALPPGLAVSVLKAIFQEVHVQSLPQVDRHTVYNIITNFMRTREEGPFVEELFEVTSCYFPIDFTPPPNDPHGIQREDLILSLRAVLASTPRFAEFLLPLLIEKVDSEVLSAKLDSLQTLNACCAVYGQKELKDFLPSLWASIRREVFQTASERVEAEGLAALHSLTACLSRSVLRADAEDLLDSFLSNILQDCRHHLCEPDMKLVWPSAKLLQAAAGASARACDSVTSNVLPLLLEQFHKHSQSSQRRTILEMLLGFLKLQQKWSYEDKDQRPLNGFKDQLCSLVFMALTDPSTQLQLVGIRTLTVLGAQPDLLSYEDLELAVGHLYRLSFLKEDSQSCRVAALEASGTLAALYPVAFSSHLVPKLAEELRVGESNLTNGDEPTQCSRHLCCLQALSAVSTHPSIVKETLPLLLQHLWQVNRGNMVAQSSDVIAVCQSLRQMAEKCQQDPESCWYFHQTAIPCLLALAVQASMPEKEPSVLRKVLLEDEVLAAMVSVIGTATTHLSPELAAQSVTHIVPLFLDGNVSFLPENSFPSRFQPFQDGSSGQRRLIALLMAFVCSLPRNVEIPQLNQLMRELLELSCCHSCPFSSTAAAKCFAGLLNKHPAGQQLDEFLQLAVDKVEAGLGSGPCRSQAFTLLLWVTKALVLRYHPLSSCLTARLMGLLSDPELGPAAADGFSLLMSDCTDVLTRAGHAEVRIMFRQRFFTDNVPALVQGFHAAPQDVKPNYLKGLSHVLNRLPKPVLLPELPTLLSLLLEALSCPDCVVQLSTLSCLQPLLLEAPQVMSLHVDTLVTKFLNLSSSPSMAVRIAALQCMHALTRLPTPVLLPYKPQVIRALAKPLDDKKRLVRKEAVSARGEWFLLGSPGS
substance,measurement,setting,value
IgG control (Millipore Sigma 12-371) (antibody),co-IP mass spectrometry count,MOV10 (human),3
same,co-IP mass spectrometry count,FUBP3 (human),7
same,co-IP mass spectrometry count,RPL13 (human),8
same,co-IP mass spectrometry count,HADHB (human),0
same,co-IP mass spectrometry count,FAU (human),5
same,co-IP mass spectrometry count,C1orf68 (human),4
same,co-IP mass spectrometry count,SPTAN1 (human),0
same,co-IP mass spectrometry count,RPL10 (human),3
same,co-IP mass spectrometry count,SAMM50 (human),0
same,co-IP mass spectrometry count,HNRNPA2B1 (human),9
same,co-IP mass spectrometry count,GGCT (human),0
same,co-IP mass spectrometry count,ATXN2 (human),3
same,co-IP mass spectrometry count,LMNA (human),18
same,co-IP mass spectrometry count,SERBP1 (human),5
same,co-IP mass spectrometry count,MYH11 (human),5
same,co-IP mass spectrometry count,CSE1L (human),0
same,co-IP mass spectrometry count,HNRNPK (human),10
same,co-IP mass spectrometry count,G3BP1 (human),25
same,co-IP mass spectrometry count,DNAJC3 (human),0
same,"co-IP/MS count, N-term IgG",PSMA3 (human),0
same,"co-IP/MS count, N-term IgG",MMS19 (human),0
